We go through 2 substances from PMC8215223.

The experiment concerns the target GM130 (UniProt Q08379). The experiment is described as follows: co-IP of GM130 with GFP-HOOK3. To be noted: reference: wild type.

For HOOK3 (from UniProt Q86VS8) S238A, the “binding against the reference” value (sites S238) is “weaker”.
Take HOOK3 (from UniProt Q86VS8) S707A: the “binding against the reference” value (sites S707) is recorded as “weaker”.
